B1: Ms6484p5 (dsDNA)
DNA 1: CAAACTATAGCAGCTCTCCACCTGACACGGTTTCGGAG
DNA 2: CTCCGAAACCGTGTCAGGTGGAGAGCTGCTATAGTTTG
B2: Ms6484p4 (dsDNA)
DNA 1: CTCCGAAACCTCTGGACATGTGTCCAGACTATAGTTTG
DNA 2: CAAACTATAGTCTGGACACATGTCCAGAGGTTTCGGAG

Target: T1, LtmA (Ms6479) (Mycobacterium smegmatis mc2155, UniProt A0R6A5 1-189)
T1 sequence: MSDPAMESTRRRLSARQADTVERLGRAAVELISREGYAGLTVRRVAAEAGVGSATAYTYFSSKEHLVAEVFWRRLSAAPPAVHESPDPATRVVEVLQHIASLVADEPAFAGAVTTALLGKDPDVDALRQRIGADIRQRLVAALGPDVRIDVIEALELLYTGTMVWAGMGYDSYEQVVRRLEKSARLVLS
Assay: EMSA

Binder | binding result
B1 | no binding
B2 | binds
